# T1: CD73 on the surface of human cells (human, UniProt P21589 27-549)
# T1 construct: whole, on cells; The cell line of each value is named under assay or readout; also called CD73 on the surface of tumor cells; CD73 enzyme on the surface of MDA-MB-231 cells
# T1 sequence (looked up): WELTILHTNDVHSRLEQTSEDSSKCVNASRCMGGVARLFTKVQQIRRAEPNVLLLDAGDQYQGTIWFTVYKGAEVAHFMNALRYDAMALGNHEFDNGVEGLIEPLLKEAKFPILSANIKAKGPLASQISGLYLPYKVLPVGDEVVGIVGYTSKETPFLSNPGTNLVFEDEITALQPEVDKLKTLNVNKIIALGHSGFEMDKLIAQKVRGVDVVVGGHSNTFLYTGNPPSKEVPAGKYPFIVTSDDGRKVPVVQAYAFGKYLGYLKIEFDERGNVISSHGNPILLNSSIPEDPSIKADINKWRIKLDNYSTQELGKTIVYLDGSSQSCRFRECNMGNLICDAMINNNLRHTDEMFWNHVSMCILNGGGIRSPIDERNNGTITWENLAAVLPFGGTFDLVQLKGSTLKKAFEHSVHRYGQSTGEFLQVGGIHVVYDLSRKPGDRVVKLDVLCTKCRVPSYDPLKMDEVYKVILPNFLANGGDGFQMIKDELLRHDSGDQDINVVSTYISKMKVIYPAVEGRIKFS
# T2: extracellular domain of human CD73 protein, C-terminus polyhistidine-tagged (human, UniProt P21589 27-547)
# T2 construct: also the immunogen; also called CD73-ECD; human CD73-ECD
# T2 sequence: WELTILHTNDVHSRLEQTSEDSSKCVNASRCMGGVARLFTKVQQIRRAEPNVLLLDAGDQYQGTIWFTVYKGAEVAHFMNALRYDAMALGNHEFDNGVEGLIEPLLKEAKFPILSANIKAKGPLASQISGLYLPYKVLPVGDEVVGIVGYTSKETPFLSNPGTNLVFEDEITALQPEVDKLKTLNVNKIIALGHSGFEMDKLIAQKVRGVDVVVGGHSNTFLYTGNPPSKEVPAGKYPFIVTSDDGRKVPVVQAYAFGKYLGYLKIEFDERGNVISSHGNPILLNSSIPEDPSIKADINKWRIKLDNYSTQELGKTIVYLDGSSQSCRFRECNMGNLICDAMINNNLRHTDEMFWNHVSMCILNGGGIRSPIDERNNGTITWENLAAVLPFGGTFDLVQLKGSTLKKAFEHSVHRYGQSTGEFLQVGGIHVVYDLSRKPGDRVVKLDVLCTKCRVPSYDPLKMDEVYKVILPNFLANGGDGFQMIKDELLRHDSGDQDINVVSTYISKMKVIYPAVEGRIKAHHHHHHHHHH
# T3: human recombinant CD73 enzyme (CD73 extracellular region) (human, UniProt P21589 27-549)
# T3 sequence (looked up): T1 sequence (looked up)
# B1: chimeric nanobody 4-B02 (Fc fusion)
# VHH: EVQLVESGGGLVQPGGSLRLSCAASGFPLDYYSIGWFRQAPGKEREGVSCIGSSDGSTYYADSVKGRFTISRDNAENTVWLQMNSLKPEDTAVYYCAALKYYYCSGHEAIYDYWGQGTQVTVSG
# notes: Human-alpaca chimeric antibody
# B2: chimeric nanobody 5-E11 (Fc fusion)
# VHH: ALQLVESGGGLVQPGGSLRLSCEVSGFTLDYYNIGWFRQAPGKEREGVSCSSNSGGSTYYADSVKGRFTISRDNAKNTVYLQMNSLKPEDTGVYYCAAYRGWHPSLDARVYDYWGQGTEVTVSS
# notes: Human-alpaca chimeric antibody (VHH on hIgG1 Fc); Only the VHH is tied to the tested molecule; also called original antibody 5-E11
# B3: chimeric nanobody 3-D7 (Fc fusion)
# VHH: QRQLVESGGGLVQPGGSLRLSCAASGFLLDYYVIGWFRQAPGKEREGVSCISGSDRSTYYADSVKGRFTISRDNAKNTVYLQMNSLKPEDTAVYFCAADPSPVTVQAMCLPRFPVPYWGQGTQVTVST
# notes: Human-alpaca chimeric antibody (VHH on hIgG1 Fc); Only the VHH is tied to the tested molecule; 37-39 exist for 3-D7-FC1/FC2/FC3; also called original antibody 3-D7
# B4: chimeric nanobody 4-D04 (Fc fusion)
# VHH: QLQLVESGGGLVQPGGSLRLSCAASGFTLDYYNIGWFRQAPGKEREGVSCISSSEGSTYYADSVKGRFTISRDNAKNTVYLQMNSLKPEDTAVYYCAADRYYYCSLHVSQYDYWGQGTLVTVSS
# notes: as for B1
# Target: T1, CD73 on the surface of human cells
# Assay: Flow cytometry on NCI-H1373 cells, PE-labelled secondary antibody [panel B]
# Procedure: (§1) 100 μL of the test antibodies diluted from 10 μg/mL to 0.016 μg/mL in a 5-fold gradient were used as the primary antibodies, and were mixed with 1×10⁵ tumor cells suspended in 100 μL RPMI-1640 serum-free medium to make a final concentration of 5 μg/mL diluted to 0.008 μg/mL, and then incubated at 4° C. for 1 h. The cells were washed twice with PBS to remove unbound primary antibodies, and then the target cells were incubated with 200 μLPE-labeled secondary antibody at 2 μg/mL at 4° C. for 30 min. The cells were washed twice with PBS to remove unbound secondary antibodies, and finally the cells were resuspended in 200 μL PBS. The binding affinity of the test antibodies to CD73 on the surface of the corresponding cells was measured by flow cytometry.
row,Binder,Max MFI
1,B1,206000 MFI
2,B2,191000 MFI
3,B3,200000 MFI
4,B4,220000 MFI

# Target: T1, CD73 on the surface of human cells
# Assay: flow cytometry on NCI-H1975 cells
# Procedure: as §1
row,Binder,EC50
1,B1,0.055 µg/mL
2,B2,0.057 µg/mL
3,B3,0.106 µg/mL
4,B4,0.068 µg/mL

# Target: T2, extracellular domain of human CD73 …
# Assay: ForteBio OCTET R2 (the filing calls it SPR); antibody on Protein A sensor, CD73-ECD in solution; traces labelled 100, 50, 25, 12.5, 6.25
# Procedure: Surface plasmon resonance (SPR) assay: Protein A sensor was used to immobilize the antibodies, with an immobilization height of about 1.5 nM. […] Affinity detection: equilibrium for 60 s, binding for 180 s, dissociation for 180 s, at a detection temperature of 25° C. Kinetic characterization analysis was performed using the ForteBio OCTET R2 system.
Binder,koff,kon
B1,0.000209 s⁻¹,263000 M⁻¹ s⁻¹
B2,0.000318 s⁻¹,385000 M⁻¹ s⁻¹
B3,0.000445 s⁻¹,223000 M⁻¹ s⁻¹
B4,0.000277 s⁻¹,301000 M⁻¹ s⁻¹

# Target: T1, CD73 on the surface of human cells
# Assay: flow cytometry on MDA-MB-231 cells
# Procedure: as §1
row,Binder,EC50
1,B1,0.037 µg/mL
2,B2,0.037 µg/mL
3,B3,0.12 µg/mL
4,B4,0.059 µg/mL

# Target: T1, CD73 on the surface of human cells
# Assay: Flow cytometry on NCI-H1975 cells, PE-labelled secondary antibody [panel B]
# Procedure: as §1
row,Binder,Max MFI
1,B1,82700 MFI
2,B2,79700 MFI
3,B3,80900 MFI
4,B4,86100 MFI

# Target: T1, CD73 on the surface of human cells
# Assay: flow cytometry on PC9 cells
# Procedure: as §1
row,Binder,EC50
1,B1,0.044 µg/mL
2,B2,0.041 µg/mL
3,B3,0.133 µg/mL
4,B4,0.057 µg/mL

# Target: T1, CD73 on the surface of human cells
# Assay: flow cytometry on NCI-H1299 cells
row,Binder,EC50
1,B1,0.078 µg/mL
2,B2,0.068 µg/mL
3,B4,0.08 µg/mL

# Target: T1, CD73 on the surface of human cells
# Assay: Flow cytometry on HCC44 cells, PE-labelled secondary antibody
# Procedure: as §1
row,Binder,Max MFI
1,B1,136000 MFI
2,B2,130000 MFI
3,B3,135000 MFI
4,B4,145000 MFI

# Target: T3, human recombinant CD73 enzyme (CD73 …)
# Assay: cell-based or functional assay
Binder,"IC50, inhibition of AMP hydrolysis by recombinant human CD73 enzyme (CellTiter-Glo)","IC50, inhibition of the catalytic function of recombinant human CD73 enzyme"
B1,0.00466 µg/mL,–
B2,0.00947 µg/mL,–
B3,0.0382 µg/mL,0.0363 µg/mL
B4,0.00563 µg/mL,–

# Target: T1, CD73 on the surface of human cells
# Assay: cell-based or functional assay
Binder,"EC50, reversal of the AMP inhibition of human T lymphocyte proliferation","IC50, inhibition of AMP hydrolysis by CD73 on MDA-MB-231 cells"
B1,0.0012 µg/mL,0.083 µg/mL
B2,0.0008 µg/mL,0.088 µg/mL
B3,0.0247 µg/mL,0.483 µg/mL
B4,0.0025 µg/mL,0.093 µg/mL

# Target: T2, extracellular domain of human CD73 …
# Assay: ELISA, coated CD73-ECD, protein A-HRP
# Procedure: The CD73 protein extracellular region (CD73-ECD) was diluted to 1 μg/mL using the coating solution, and an ELISA plate was coated at 100 μL/well at 4° C. overnight. Excess antigens were washed away, and the plate was blocked with 1% BSA at room temperature for 2 hours. Then, 5-fold gradient dilutions of each monoclonal antibody were added at 100 μL/well and incubated at room temperature for 1 hour. Unbound antibodies were washed away, and an appropriate concentration of Staphylococcal protein A labeled with horseradish peroxidase was added at 100 μL/well and incubated at room temperature for 0.5 hours. Unbound secondary antibodies were washed away, and TMB color development solution was added to react for about 15 minutes. 1M HCL was added at 50 µL/well to terminate the color development reaction, and then the absorbance was measured at 450 nm and the data was analyzed.
row,Binder,EC50
1,B1,0.00303 µg/mL
2,B2,0.00872 µg/mL
3,B3,0.0135 µg/mL
4,B4,0.00267 µg/mL

# Target: T1, CD73 on the surface of human cells
# Assay: Flow cytometry on PC9 cells, PE-labelled secondary antibody [panel A]
# Procedure: as §1
row,Binder,Max MFI
1,B1,61600 MFI
2,B2,58900 MFI
3,B3,58800 MFI
4,B4,65000 MFI
